In the supplement of paper PMC9233669 one finds self-aminoacylation data, which are given here for 54 sequences.

The test system of this series is biotinyl-Phe-oxazolone. The series is described as follows: self-aminoacylation, catalytic enhancement (BFO) (fold over background); higher = more active; k-Seq, kA / k0A0; sequences stand for … in GGGAAUGGAUCCACAUCUACGAAUUC…UUCACUGCAGACUUGACGAAGCUG
In a few lines:
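Working in 50 μL HEPES/NaCl/KCl/MgCl2/CaCl2 buffer with 5% acetonitrile at pH 6.9–7.0, mutagenized RNA pools (0.43 μM; 21-nt variable region) were reacted with 2–1250 μM of each biotinyl-aminoacyl-oxazolone for 90 minutes at room temperature. Streptavidin capture followed, with quantification by triplicate qPCR and Illumina sequencing. Catalytic enhancement is reported as median kA over the uncatalyzed rate, the low-activity peak of a bimodal Gaussian fit to the data.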

Variants at the floor of the assay were thinned out.

As for “AAAUUUGCUAAUAGUCGGAAG [Fam3.1 aminoacylation ribozyme variant]”, the self-aminoacylation was found to be 2.57.

For “AAGAUUGCUAACAGUCGCAAG [Fam3.1 aminoacylation ribozyme variant]”, the self-aminoacylation came out at 2.49.

With “AAGAUUGCUAAUAGUCGCAAC [Fam3.1 aminoacylation ribozyme variant]”, the self-aminoacylation was 2.08.

Regarding “AAGAUUGCUGAUAGUCGCAAG [Fam3.1 aminoacylation ribozyme variant]”, the self-aminoacylation is 2.57.

Take “AAGUCUGCUAAUAGUCGCAAA [Fam3.1 aminoacylation ribozyme variant]”: the self-aminoacylation came to 2.14.

As to “AAGUGUGCUAAUAGUGGCAAG [Fam3.1 aminoacylation ribozyme variant]”, the self-aminoacylation stood at 2.86.

On to “AAGUUAGCUAAUAGUCGCUAG [Fam3.1 aminoacylation ribozyme variant]”, for which the self-aminoacylation came to 2.36.

Turning to “AAGUUAGUUAAUAGUCGCAAG [Fam3.1 aminoacylation ribozyme variant]”, the self-aminoacylation was determined as 2.7.

As to “AAGUUGGCUAAUAGUCCCAAG [Fam3.1 aminoacylation ribozyme variant]”, the self-aminoacylation came out at 2.06.

Regarding “AAGUUUCAUAAUAGUCGCAAG [Fam3.1 aminoacylation ribozyme variant]”, the self-aminoacylation turned out to be 2.19.

On to “AAGUUUCCUAAUAGUCGCCAG [Fam3.1 aminoacylation ribozyme variant]”, for which the self-aminoacylation was found to be 2.94.

For “AAGUUUCCUACUAGUCGCAAG [Fam3.1 aminoacylation ribozyme variant]”, the self-aminoacylation came out at 2.54.

Take “AAGUUUCCUUAUAGUCGCAAG [Fam3.1 aminoacylation ribozyme variant]”: the self-aminoacylation stood at 2.75.

For “AAGUUUGAUAAUAGUCGCAAU [Fam3.1 aminoacylation ribozyme variant]”, the self-aminoacylation was found to be 2.12.

On to “AAGUUUGCGAAUAGCCGCAAG [Fam3.1 aminoacylation ribozyme variant]”, for which the self-aminoacylation stood at 4.03.

“AAGUUUGCGAAUAGGCGCAAG [Fam3.1 aminoacylation ribozyme variant]”: the self-aminoacylation turned out to be 9.76.

In the case of “AAGUUUGCUAACAGUCGGAAG [Fam3.1 aminoacylation ribozyme variant]”, the self-aminoacylation turned out to be 6.87.

With “AAGUUUGCUAAUAGCCGCAAU [Fam3.1 aminoacylation ribozyme variant]”, the self-aminoacylation amounted to 2.22.

For “AAGUUUGCUAAUAGUCAAAAG [Fam3.1 aminoacylation ribozyme variant]”, the self-aminoacylation was 3.26.

As to “AAGUUUGCUAAUAGUUGCGAG [Fam3.1 aminoacylation ribozyme variant]”, the self-aminoacylation amounted to 2.61.

On to “AAGUUUGCUAAUGGUCGCAAU [Fam3.1 aminoacylation ribozyme variant]”, for which the self-aminoacylation amounted to 3.15.

For the sequence “AAGUUUGCUGAUAGUCGCAGG [Fam3.1 aminoacylation ribozyme variant]”, the self-aminoacylation stood at 2.42.

Consider “AAGUUUGGUAAUAGUCGCGAG [Fam3.1 aminoacylation ribozyme variant]”, for which the self-aminoacylation was 2.51.

Consider “AAGUUUGUUCAUAGUCGCAAG [Fam3.1 aminoacylation ribozyme variant]”, for which the self-aminoacylation stood at 2.01.

For “AAGUUUUCAAAUAGUCGCAAG [Fam3.1 aminoacylation ribozyme variant]”, the self-aminoacylation amounted to 2.08.

Regarding “AAGUUUUCUAAUAGUCGAAAG [Fam3.1 aminoacylation ribozyme variant]”, the self-aminoacylation was found to be 2.

Turning to “AAGUUUUCUAAUAGUCGCUAG [Fam3.1 aminoacylation ribozyme variant]”, the self-aminoacylation was 2.43.

“AAGUUUUCUAAUAGUCGUAAG [Fam3.1 aminoacylation ribozyme variant]”: the self-aminoacylation turned out to be 2.29.

Regarding “AAGUUUUCUAAUAGUUGCAAG [Fam3.1 aminoacylation ribozyme variant]”, the self-aminoacylation stood at 2.94.

As to “AAUCACCUAGGUCAUCGUGUG [Fam2.2 aminoacylation ribozyme variant]”, the self-aminoacylation was determined as 5.37.

As for “AAUUUUGCUAAUAAUCGCAAG [Fam3.1 aminoacylation ribozyme variant]”, the self-aminoacylation turned out to be 2.03.

On to “ACGUUUGCUAAUAGUCCCAAG [Fam3.1 aminoacylation ribozyme variant]”, for which the self-aminoacylation worked out at 2.

On to “AGUACCCUGGUCAUCGAGUGC [Fam2.1 aminoacylation ribozyme variant]”, for which the self-aminoacylation is 2.36.

As for “AUGCACCUAGGUCAUCGGGUC [Fam2.2 aminoacylation ribozyme variant]”, the self-aminoacylation was 7.15.

In the case of “AUGUUUGCGAAUAGUCGCAAG [Fam3.1 aminoacylation ribozyme variant]”, the self-aminoacylation turned out to be 2.47.

Regarding “AUGUUUGUUAAUAGUCGCAAG [Fam3.1 aminoacylation ribozyme variant]”, the self-aminoacylation came to 2.31.

Turning to “AUUACCCUGGCCAUCGACUGA [Fam2.1 aminoacylation ribozyme variant]”, the self-aminoacylation worked out at 2.83.

Take “AUUACCCUGGUCAUCAAGUGU [Fam2.1 aminoacylation ribozyme variant]”: the self-aminoacylation was determined as 2.34.

For “AUUAGCUUGGUCAUCGAGUGA [Fam2.1 aminoacylation ribozyme variant]”, the self-aminoacylation was 2.2.

Regarding “AUUCACCAAGGUCAUCGGGUC [Fam2.2 aminoacylation ribozyme variant]”, the self-aminoacylation came out at 3.27.

With “AUUCACCUAGGUCAUCAUGUG [Fam2.2 aminoacylation ribozyme variant]”, the self-aminoacylation is 2.12.

Regarding “AUUCACCUAGGUCGUCGGGUU [Fam2.2 aminoacylation ribozyme variant]”, the self-aminoacylation was 3.1.

“AUUCACCUAGGUUAUCGUGUG [Fam2.2 aminoacylation ribozyme variant]”: the self-aminoacylation was 2.6.

Consider “AUUCACCUCGGUCAUCGUGUG [Fam2.2 aminoacylation ribozyme variant]”, for which the self-aminoacylation is 3.14.

Regarding “AUUCACCUGGGUCAUCGGGUC [Fam2.2 aminoacylation ribozyme variant]”, the self-aminoacylation was found to be 5.84.

“AUUCACCUGGGUCAUCGUGUG [Fam2.2 aminoacylation ribozyme variant]”: the self-aminoacylation was 4.81.

For the sequence “AUUCUCCUAGGUCAUCGGUUG [Fam2.2 aminoacylation ribozyme variant]”, the self-aminoacylation was 6.63.

For “AUUGCCCUGGUCGUCGAGUGA [Fam2.1 aminoacylation ribozyme variant]”, the self-aminoacylation came to 8.62.

For “AUUUACCUAGGUCAUCGGCUG [Fam2.2 aminoacylation ribozyme variant]”, the self-aminoacylation turned out to be 2.16.

With “CAGUUUGCUAAGAGUCGCAAG [Fam3.1 aminoacylation ribozyme variant]”, the self-aminoacylation came out at 2.85.

For “CAGUUUGCUAAUAGUCCCAAG [Fam3.1 aminoacylation ribozyme variant]”, the self-aminoacylation stood at 2.32.

With “CAGUUUGCUAAUAGUCGCAAC [Fam3.1 aminoacylation ribozyme variant]”, the self-aminoacylation was found to be 2.78.

Regarding “CAGUUUGCUAAUAGUCGCAGG [Fam3.1 aminoacylation ribozyme variant]”, the self-aminoacylation was found to be 3.45.

In the case of “CAGUUUUCUAAUAGUCGCAAG [Fam3.1 aminoacylation ribozyme variant]”, the self-aminoacylation turned out to be 2.91.
